We go through 3 molecules from PMC5567289, “Characterization and structural determination of a new anti-MET function-blocking antibody with binding epitope distinct from the ligand binding domain” (Scientific Reports, 2017).

Holding throughout (details): both partners purified
In one test the target is T1, MET567 (Homo sapiens, UniProt P08581).
T1 construct: MET receptor (HGF/SF receptor), recombinant truncation of the ectodomain with the SEMA and CR domains and no Ig domain; The ectodomain is cut by furin into an alpha and a beta chain; written here as one chain; also called soluble fragment of the MET ectodomain comprising the SEMA and cysteine-rich (CR) domain
Briefly: SEC; 6 µM Fab and 4 µM MET (3:2 molar ratio) co-incubated 140 minutes at room temperature in 25 mM Tris pH 7.4, 150 mM NaCl; Superdex 200 10/300. In general terms: Size exclusion chromatography separates by hydrodynamic size, large species first.

The target of another test is T2, MET (Homo sapiens, UniProt P08581).
T2 construct: MET receptor; Further methods are said to stand in the Supplementary Information file
Briefly: SPR; Biacore; mean of three experiments; 107_A07 Fab purified sequentially on KappaSelect and GammaBind Plus; MET construct and who was immobilised not stated.

Test [1] has as its target T3, MET928 (UniProt P08581).
T3 construct: MET receptor (HGF/SF receptor), recombinant ectodomain with the SEMA, CR and Ig1-4 domains; The ectodomain is cut by furin into an alpha and a beta chain; written here as one chain; also called MET extracellular domain (MET928); His-tagged MET928; source: recombinant
Briefly: SPR; CM5 chip coated with MET928; 7A2 scFv (134 nM, 268 nM), NK1 (238 nM, 476 nM) or a mixture (134 nM 7A2 scFv, 238 nM NK1); 60 s injections.

For the next test, the target named is T4, MET741 (Homo sapiens, UniProt P08581).
T4 construct: MET receptor (HGF/SF receptor), recombinant truncation of the ectodomain with the SEMA, CR and Ig1-2 domains; The ectodomain is cut by furin into an alpha and a beta chain; written here as one chain; also called soluble MET741; his-tagged MET741; source: CHO Lec3.2.8.1 cells, purified (NiNTA, cation exchange MonoS)
Briefly: SEC; 6 µM Fab and 4 µM MET (3:2 molar ratio) co-incubated 140 minutes at room temperature in 25 mM Tris pH 7.4, 150 mM NaCl; Superdex 200 10/300.

Test [2] deals with T3, MET928. Described as above.

T1 sequence (P08581 39-564): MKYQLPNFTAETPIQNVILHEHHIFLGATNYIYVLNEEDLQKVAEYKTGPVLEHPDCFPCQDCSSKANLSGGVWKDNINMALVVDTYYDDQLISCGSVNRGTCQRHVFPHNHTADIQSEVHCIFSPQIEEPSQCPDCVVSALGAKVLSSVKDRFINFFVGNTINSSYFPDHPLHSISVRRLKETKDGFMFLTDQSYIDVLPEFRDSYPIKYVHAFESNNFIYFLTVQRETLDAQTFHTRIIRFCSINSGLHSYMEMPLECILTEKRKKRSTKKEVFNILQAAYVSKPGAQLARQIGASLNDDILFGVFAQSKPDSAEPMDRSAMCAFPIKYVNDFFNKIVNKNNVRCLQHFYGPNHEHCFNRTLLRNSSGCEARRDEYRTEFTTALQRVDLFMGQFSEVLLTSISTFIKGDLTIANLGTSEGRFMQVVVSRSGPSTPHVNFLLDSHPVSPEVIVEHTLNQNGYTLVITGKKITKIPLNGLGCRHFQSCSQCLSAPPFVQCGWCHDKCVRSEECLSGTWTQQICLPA
T3 sequence (P08581 25-932): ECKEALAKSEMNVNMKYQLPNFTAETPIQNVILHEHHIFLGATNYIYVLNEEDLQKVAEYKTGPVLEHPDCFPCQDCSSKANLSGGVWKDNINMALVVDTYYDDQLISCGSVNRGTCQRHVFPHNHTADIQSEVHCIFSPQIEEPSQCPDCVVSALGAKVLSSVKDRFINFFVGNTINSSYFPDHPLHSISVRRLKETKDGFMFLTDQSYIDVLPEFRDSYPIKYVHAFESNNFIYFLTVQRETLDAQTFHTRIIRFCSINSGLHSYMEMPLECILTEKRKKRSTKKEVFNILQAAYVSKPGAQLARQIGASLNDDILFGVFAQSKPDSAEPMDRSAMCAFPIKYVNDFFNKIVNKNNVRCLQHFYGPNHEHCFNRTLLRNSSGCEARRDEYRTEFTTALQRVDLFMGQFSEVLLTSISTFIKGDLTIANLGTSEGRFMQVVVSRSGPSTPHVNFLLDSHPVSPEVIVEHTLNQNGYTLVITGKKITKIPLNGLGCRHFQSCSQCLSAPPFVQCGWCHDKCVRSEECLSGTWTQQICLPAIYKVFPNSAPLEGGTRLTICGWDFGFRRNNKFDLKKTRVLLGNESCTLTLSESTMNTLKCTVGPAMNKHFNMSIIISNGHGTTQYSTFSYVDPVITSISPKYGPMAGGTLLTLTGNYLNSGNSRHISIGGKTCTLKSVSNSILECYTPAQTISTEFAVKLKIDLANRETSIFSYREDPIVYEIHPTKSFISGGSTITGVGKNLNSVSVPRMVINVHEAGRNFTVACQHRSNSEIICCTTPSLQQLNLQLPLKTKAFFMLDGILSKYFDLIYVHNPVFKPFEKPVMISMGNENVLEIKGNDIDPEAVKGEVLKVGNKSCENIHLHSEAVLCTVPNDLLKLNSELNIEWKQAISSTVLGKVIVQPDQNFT
T2 sequence (P08581 25-1390): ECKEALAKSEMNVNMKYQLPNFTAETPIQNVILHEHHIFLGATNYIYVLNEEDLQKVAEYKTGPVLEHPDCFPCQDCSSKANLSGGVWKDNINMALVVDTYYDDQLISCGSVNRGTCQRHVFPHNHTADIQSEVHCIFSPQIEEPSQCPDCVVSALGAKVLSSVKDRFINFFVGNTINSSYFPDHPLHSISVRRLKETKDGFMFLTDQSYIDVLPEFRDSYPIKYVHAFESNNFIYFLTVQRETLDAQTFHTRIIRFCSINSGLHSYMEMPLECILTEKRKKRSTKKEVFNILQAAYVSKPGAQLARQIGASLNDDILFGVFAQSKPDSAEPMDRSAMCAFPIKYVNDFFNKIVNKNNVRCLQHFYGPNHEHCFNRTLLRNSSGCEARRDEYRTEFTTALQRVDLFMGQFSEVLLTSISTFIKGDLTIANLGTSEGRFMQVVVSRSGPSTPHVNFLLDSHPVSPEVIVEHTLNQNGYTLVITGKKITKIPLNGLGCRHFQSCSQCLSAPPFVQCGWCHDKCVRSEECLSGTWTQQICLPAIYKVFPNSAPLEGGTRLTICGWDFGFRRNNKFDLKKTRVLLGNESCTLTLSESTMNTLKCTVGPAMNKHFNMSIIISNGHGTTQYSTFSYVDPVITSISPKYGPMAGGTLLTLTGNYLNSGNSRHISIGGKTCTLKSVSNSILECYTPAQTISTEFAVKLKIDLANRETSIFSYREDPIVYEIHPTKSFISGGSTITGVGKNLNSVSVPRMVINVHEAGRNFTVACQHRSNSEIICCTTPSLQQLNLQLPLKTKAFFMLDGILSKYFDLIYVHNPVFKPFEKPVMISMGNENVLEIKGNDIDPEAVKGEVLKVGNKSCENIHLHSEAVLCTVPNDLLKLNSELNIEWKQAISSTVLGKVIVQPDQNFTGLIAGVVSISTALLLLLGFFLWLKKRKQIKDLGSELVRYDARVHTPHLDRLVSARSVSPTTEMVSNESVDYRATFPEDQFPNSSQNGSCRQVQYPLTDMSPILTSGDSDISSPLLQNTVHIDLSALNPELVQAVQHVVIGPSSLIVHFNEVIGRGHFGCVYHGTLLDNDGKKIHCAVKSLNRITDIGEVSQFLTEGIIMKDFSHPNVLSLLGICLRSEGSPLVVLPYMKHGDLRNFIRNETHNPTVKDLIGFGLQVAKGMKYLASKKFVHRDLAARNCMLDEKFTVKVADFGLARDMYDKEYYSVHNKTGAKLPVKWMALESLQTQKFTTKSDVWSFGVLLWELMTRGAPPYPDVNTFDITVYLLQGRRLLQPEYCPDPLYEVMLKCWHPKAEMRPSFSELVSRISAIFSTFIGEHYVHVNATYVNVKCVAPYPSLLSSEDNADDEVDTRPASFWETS
T4 sequence (P08581 25-741): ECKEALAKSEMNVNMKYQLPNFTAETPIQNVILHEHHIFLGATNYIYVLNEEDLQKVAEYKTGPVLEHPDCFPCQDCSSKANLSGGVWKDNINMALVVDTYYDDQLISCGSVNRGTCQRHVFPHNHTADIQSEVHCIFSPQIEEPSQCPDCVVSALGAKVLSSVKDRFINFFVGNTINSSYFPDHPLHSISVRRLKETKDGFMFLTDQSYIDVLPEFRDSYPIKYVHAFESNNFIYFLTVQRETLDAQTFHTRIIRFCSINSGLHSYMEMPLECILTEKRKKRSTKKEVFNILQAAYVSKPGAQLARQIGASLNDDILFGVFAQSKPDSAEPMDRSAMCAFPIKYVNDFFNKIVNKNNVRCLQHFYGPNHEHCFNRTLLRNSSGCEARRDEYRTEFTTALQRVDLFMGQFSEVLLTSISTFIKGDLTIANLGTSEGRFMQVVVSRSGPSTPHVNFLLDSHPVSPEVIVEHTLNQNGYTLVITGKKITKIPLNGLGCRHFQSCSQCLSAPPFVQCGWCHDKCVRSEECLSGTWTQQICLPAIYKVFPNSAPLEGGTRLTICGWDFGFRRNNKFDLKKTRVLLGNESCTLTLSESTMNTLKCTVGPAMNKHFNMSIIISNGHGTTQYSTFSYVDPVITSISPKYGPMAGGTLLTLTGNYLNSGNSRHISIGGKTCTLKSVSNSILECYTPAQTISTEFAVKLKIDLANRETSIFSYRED

B1: 107_A07 Fab (Fab, V domains shown)
VH: QMQLVQSGAEVKKPGAPVKVSCKVSGYTFTDYYMHWVQQAPGKGLEWMGLVDPEDGETIYAEKFQGRVTITADTSTDTAYMELSSLRSEDTAVYYCATDATTPYWGMMWWGQGTLVTVSS
VL: DIQMIQSPSSLSASVGDRVTITCQASQDISNYLNWYQQKPGRAPKVLIYDASNLETGVPSRFSGSGSGTEFTLTISNLRPDDFATYYCQQGDSFPLTFGGGTKVEIK
notes: Fab heavy chain is chain H of the deposited structure PDB 5LSP; Fab light chain is chain L of the deposited structure PDB 5LSP
Usually Kd stands for the concentration at which binding is half-saturated. Regarding B1, in the test with MET567, the binding result is given as “no binding (tested: 6 µM Fab, 4 µM MET567)”. Also, the Kd with MET came out at 3.2 nM.

B2: 7A2 scFv (scFv, V domains shown)
VH: QMQLVQSGAEVKKPGAPVKVSCKVSGYTFTDYYMHWVQQAPGKGLEWMGLVDPEDGETIYAEKFQGRVTITADTSTDTAYMELSSLRSEDTAVYYCATDATTPYYGMDVWGQGTLVTVSS
VL: DIQMTQSPSSLSASVGDRVTITCQASQDISNYLNWYQQKPGRAPKVLIYDASNLETGVPSRFSGSGSGTEFTLTISNLRPDDFATYYCQQGDSFPLTFGGGTKVEIK
notes: VH of 7A2: as the VH of m1 (PDB 5LSP chain H) except in CDR3, where 7A2 has Y105 instead of W105; VL of 7A2: as the VL of m1 (PDB 5LSP chain L); also called clone 7A2; source: Pichia pastoris, purified (Ni-NTA, gel filtration)
On to B2, for which, in the test with MET928 [1], the binding result is recorded as “binds”.

B3: 7A2 Fab (Fab, V domains shown)
VH: QMQLVQSGAEVKKPGAPVKVSCKVSGYTFTDYYMHWVQQAPGKGLEWMGLVDPEDGETIYAEKFQGRVTITADTSTDTAYMELSSLRSEDTAVYYCATDATTPYYGMDVWGQGTLVTVSS
VL: DIQMTQSPSSLSASVGDRVTITCQASQDISNYLNWYQQKPGRAPKVLIYDASNLETGVPSRFSGSGSGTEFTLTISNLRPDDFATYYCQQGDSFPLTFGGGTKVEIK
notes: as the light chain of m1 (PDB 5LSP chain L): the matured clones came from VH CDR3 mutagenesis and VL mutants were not identified; also called Fab 7A2; Fab-formatted 7A2
Consider B3, for which the binding result with MET567 is “no binding (tested: 6 µM Fab, 4 µM MET567)”; in the test with MET741 it was “binds”; with MET928 [2], “binds”.
